Measurements from US20140378537A1 (Genentech, published 2014).

B2: murine BATF (other, UniProt O35284 1-125, looked up)
chain: MPHSSDSSDSSFSRSPPPGKQDSSDDVRKVQRREKNRIAAQKSRQRQTQKADTLHLESEDLEKQNAALRKEIKQLTEELKYFTSVLSSHEPLCSVLASGTPSPPEVVYSAHAFHQPHISSPRFQP
notes: AP-1 family transcription factor, used as nuclear extract
B5: murine IRF-4 (other)
chain: MNLETGSRGSEFGMSAVSCGNGKLRQWLIDQIDSGKYPGLVWENEEKSVFRIPWKHAGKQDYNREEDAALFKAWALFKGKFREGIDKPDPPTWKTRLRCALNKSNDFEELVERSQLDISDPYKVYRIVPEGAKKGAKQLTLDDTQMAMGHPYPMTAPYGSLPAQQVHNYMMPPHDRSWRDYAPDQSHPEIPYQCPVTFGPRGHHWQGPSCENGCQVTGTFYACAPPESQAPGIPIEPSIRSAEALALSDCRLHICLYYRDILVKELTTTSPEGCRISHGHTYDVSNLDQVLFPYPDDNGQRKNIEKLLSHLERGLVLWMAPDGLYAKRLCQSRIYWDGPLALCSDRPNKLERDQTCKLFDTQQFLSELQVFAHHGRPAPRFQVTLCFGEEFPDPQRQRKLITAHVEPLLARQLYYFAQQNTGHFLRGYELPEHVTTPDYHRSLRHSSIQE
notes: Transcription factor; Expressed from CMV vectors encoding murine IRF-4 in 293T cells and used as nuclear extract, or endogenous in mouse Th17 nuclear extracts; also called Pip

Experiments:
His-tagged IRF4 = biological target: T1, His-tagged IRF4 (murine, UniProt Q64287 1-450); test: EMSA, 293T nuclear extracts, CTLA-4 and Bcl11b AICE DNA probes (DNA-dependent ternary complex)
T1 construct: not shown: His tag
T1 sequence: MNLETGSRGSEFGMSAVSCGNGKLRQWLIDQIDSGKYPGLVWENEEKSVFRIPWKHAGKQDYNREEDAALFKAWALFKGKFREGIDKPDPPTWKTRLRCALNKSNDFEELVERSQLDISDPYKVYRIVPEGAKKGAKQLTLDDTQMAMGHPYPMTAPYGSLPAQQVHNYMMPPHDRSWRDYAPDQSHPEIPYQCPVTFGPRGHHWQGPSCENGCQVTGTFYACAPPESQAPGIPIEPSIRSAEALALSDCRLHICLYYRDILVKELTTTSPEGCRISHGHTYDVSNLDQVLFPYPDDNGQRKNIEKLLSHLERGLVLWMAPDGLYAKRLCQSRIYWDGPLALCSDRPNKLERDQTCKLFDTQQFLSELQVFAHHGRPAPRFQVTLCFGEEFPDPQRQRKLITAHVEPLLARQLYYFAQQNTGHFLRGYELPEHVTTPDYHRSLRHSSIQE
Description: Positions of various protein/DNA complexes are indicated. Nuclear extracts were incubated with either the wild type Bcl11b or CTLA-4 probes or their indicated mutant counterparts in which either the IRF or AP-1 site or both were altered.
(§1) Nuclear extracts were prepared from 293T cells (2×107), 48 hours after their transfection or from Th17 cells (8×107), 42 hours after their activation and differentiation. Cells were incubated for 10 min in 1 ml of hypotonic buffer (10 mM Hepes pH7.6, 10 mM KCl, 0.1 mM EGTA, 1.5 mM MgCl, 1 mM DTT, 0.5 mM PMSF and the complete protease inhibitor mixture (Roche, #11697498001) and then lysed with the addition of 0.01% Triton-x-100. After centrifugation at maximum speed in an Eppendorf microfuge for 15 seconds the nuclear pellet was resuspended in 80 μl of the following buffer (420 mM NaCl, 20 mM Hepes pH7.9, 0.2 mM EDTA, 25% Glycerol, 1 mM DTT, 0.5 mM PMSF with complete protease inhibitor mixture). Nuclear proteins were extracted with intermittent vortexing and incubation for 15 minutes at […]. In-vitro binding assays were performed using reagents from the light-shift chemiluminescent EMSA kit (Thermo scientific) according to the manufacturer's protocol, with the exception of using FAMlabeled probes (Table 2, below). Protein-DNA complexes were resolved using 6%-TBE Gels (Invitrogen) at 100V and imaged with a Typhoon Trio Imager (Amersham Biosciences). […]

murine JunB = biological target: T2, murine JunB (murine, UniProt P09450 1-344); test: EMSA supershift, Th17 nuclear extracts, IRF-site-mutated AICE probes
T2 construct: AP-1 family transcription factor, used as nuclear extract
T2 sequence (looked up): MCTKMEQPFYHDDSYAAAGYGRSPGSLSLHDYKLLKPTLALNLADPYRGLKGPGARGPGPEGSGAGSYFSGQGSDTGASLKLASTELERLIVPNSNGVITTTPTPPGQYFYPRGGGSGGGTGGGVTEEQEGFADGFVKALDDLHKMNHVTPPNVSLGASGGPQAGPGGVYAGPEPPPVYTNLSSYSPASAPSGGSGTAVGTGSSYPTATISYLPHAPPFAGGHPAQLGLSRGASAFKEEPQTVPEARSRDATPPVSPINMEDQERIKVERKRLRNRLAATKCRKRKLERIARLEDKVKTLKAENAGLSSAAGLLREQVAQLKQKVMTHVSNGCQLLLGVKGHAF

murine IRF-4 = biological target: B5; test: EMSA, Th17 nuclear extracts, Bcl11b and CTLA-4 probes
Description: as §1

BATF/JunB heterodimer [1] = biological target: T3, BATF/JunB heterodimer (murine, UniProt O35284 1-125; P09450 1-344); test: EMSA, 293T nuclear extracts, AICE probes
T3 construct: Formed by mixing 293T nuclear extracts, or endogenous in Th17 nuclear extracts; also called BATF/JunB complex
T3 sequence (looked up) 1: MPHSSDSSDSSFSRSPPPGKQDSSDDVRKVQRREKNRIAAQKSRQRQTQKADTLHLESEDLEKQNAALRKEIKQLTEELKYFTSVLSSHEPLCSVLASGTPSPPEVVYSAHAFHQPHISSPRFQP
T3 sequence (looked up) 2: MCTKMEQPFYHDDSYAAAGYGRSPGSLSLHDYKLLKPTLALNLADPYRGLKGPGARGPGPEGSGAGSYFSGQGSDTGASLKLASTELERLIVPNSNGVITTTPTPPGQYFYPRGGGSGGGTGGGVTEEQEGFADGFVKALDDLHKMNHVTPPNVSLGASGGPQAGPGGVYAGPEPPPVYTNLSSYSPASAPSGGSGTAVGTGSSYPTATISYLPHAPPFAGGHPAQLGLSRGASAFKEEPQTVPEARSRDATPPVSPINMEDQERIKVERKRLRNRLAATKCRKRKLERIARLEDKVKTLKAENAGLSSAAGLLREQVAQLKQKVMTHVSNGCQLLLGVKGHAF
Text: (§2) (a-d) EMSAs using the Bcl11b probe and 293T nuclear extracts as a source of indicated proteins (a) c-Jun, BATF, IRF-4, (b) FosL2, JunB, IRF-4, (c) JunB, BATF, IRF-8 or (d) JunB, BATF, IRF-3 (e) EMSA using an ISRE containing probe and IRF-3 or IRF-4. Complexes were supershifted with indicated antibodies. Red and green arrows mark the ternary and quaternary protein-DNA complexes, respectively as in FIG. 1d. Data are representative of at least two independent experiments. (f-h) Th0 cells and Th2 cells differentiated in vitro (42 hours) and LPS-activated dendritic cells (6 hours) were subjected to chromatin crosslinking and immunoprecipitation with antibodies directed against IRF-4. Immunoprecipitated chromatin was deep sequenced and analyzed as in FIG. 3a.
(§3) Nuclear extracts were prepared from 293T cells (2×107), 48 hours after their transfection or from Th17 cells (8×107), 42 hours after their activation and differentiation. […]

BATF/JunB heterodimer [2] = biological target: T3, BATF/JunB heterodimer; test: EMSA on Bcl11b AICE DNA probe, 293T nuclear extracts
Text: as §2, §3

murine BATF = biological target: B2; test: cell-based or functional assay
c-Jun/BATF heterodimer = biological target: T4, c-Jun/BATF heterodimer (murine, UniProt P05627 1-334; O35284 1-125); test: EMSA, 293T nuclear extracts, AICE probes
T4 construct: also called BATF/cJun
T4 sequence (P05627 whole entry, one chain of several): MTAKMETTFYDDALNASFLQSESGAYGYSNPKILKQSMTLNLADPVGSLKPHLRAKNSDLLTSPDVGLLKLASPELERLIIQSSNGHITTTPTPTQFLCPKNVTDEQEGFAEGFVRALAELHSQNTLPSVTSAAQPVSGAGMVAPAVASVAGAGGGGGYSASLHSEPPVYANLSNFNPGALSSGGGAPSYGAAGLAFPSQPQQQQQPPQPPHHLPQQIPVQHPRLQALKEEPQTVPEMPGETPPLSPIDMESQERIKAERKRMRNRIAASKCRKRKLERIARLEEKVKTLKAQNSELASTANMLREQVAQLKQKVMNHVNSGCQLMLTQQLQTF
Text: as §2, §3

JunB/FosL2 heterodimer = biological target: T5, JunB/FosL2 heterodimer (murine, UniProt P09450 1-344; P47930 1-326); test: EMSA on AICE DNA probes, 293T nuclear extracts
T5 construct: also called FosL2/JunB heterodimer
T5 sequence (looked up) 1: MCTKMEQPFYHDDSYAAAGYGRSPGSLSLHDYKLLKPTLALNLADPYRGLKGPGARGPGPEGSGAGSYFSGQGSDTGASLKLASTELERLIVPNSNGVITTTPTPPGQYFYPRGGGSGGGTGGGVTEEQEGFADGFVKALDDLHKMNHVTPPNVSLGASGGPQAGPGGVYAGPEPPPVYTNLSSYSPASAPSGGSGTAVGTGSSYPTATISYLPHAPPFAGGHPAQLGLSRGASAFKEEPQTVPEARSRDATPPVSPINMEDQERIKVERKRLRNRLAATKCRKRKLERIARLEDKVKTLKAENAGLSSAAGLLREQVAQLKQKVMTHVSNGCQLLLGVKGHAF
T5 sequence (looked up) 2: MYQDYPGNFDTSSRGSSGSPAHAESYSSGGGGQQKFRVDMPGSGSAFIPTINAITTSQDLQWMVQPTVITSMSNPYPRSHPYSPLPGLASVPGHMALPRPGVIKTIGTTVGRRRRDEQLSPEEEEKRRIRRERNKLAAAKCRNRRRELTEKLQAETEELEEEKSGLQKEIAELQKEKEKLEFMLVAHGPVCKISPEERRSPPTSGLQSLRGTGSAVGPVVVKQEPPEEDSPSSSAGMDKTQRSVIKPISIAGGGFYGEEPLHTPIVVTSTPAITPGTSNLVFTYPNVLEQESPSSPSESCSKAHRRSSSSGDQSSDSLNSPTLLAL
Text: as §2, §3

B1: Flag-tagged BATF (other, murine, UniProt O35284 1-125, looked up)
chain: MPHSSDSSDSSFSRSPPPGKQDSSDDVRKVQRREKNRIAAQKSRQRQTQKADTLHLESEDLEKQNAALRKEIKQLTEELKYFTSVLSSHEPLCSVLASGTPSPPEVVYSAHAFHQPHISSPRFQP
notes: not shown: Flag tag
binding result (His-tagged IRF4): binds

B2
binding result (murine JunB): binds
binding result (murine IRF-4): binds

B3: murine IRF-8 (other)
chain: MCDRNGGRRLRQWLIEQIDSSMYPGLIWENDEKTMFRIPWKHAGKQDYNQEVDASIFKAWAVFKGKFKEGDKAEPATWKTRLRCALNKSPDFEEVTDRSQLDISEPYKVYRIVPEEEQKCKLGVAPAGCMSEVPEMECGRSEIEELIKEPSVDEYMGMTKRSPSPPEACRSQILPDWWVQQPSAGLPLVTGYAAYDTHHSAFSQMVISFYYGGKLVGQATTTCLEGCRLSLSQPGLPKLYGPDGLEPVCFPTADTIPSERQRQVTRKLFGHLERGVLLHSNRKGVFVKRLCQGRVFCSGNAVVCKGRPNKLERDEVVQVFDTNQFIRELQQFYATQSRLPDSRVVLCFGEEFPDTVPLRSKLILVQVEQLYARQLVEEAGKSCGAGSLMPALEEPQPDQAFRMFPDICTSHQRPFFRENQQITV
notes: Expressed from a CMV vector encoding murine IRF-8 in 293T cells and used as nuclear extract; also called ICSBP
binding result (BATF/JunB heterodimer [1]): binds

B4: murine IRF-3 (other, UniProt P70671 1-419, looked up)
chain: METPKPRILPWLVSQLDLGQLEGVAWLDESRTRFRIPWKHGLRQDAQMADFGIFQAWAEASGAYTPGKDKPDVSTWKRNFRSALNRKEVLRLAADNSKDPYDPHKVYEFVTPGARDFVHLGASPDTNGKSSLPHSQENLPKLFDGLILGPLKDEGSSDLAIVSDPSQQLPSPNVNNFLNPAPQENPLKQLLAEEQWEFEVTAFYRGRQVFQQTLFCPGGLRLVGSTADMTLPWQPVTLPDPEGFLTDKLVKEYVGQVLKGLGNGLALWQAGQCLWAQRLGHSHAFWALGEELLPDSGRGPDGEVHKDKDGAVFDLRPFVADLIAFMEGSGHSPRYTLWFCMGEMWPQDQPWVKRLVMVKVVPTCLKELLEMAREGGASSLKTVDLHISNSQPISLTSDQYKAYLQDLVEDMDFQATGNI
notes: Used as 293T nuclear extract
binding result (BATF/JunB heterodimer [2]): no binding

B5
CTLA-4 levels (intracellular, flow cytometry) in T cells transduced with IRF4 and/or BATF retroviruses (murine BATF): 3 fold
ICOS levels (surface expression, flow cytometry) in Th0 cells transduced with IRF4 and/or BATF retroviruses (murine BATF): ~6 fold
frequency of IL-17A producing cells by intracellular flow cytometry (murine BATF): 2 fold
binding result (c-Jun/BATF heterodimer): binds
binding result (JunB/FosL2 heterodimer): no binding
